Experiment [1] concerns the target T1, soluble CD8αβ heterodimer fusion protein (mouse, UniProt P01731 28-151; P10300 22-138). As to the kind of experiment: SPR, Biacore 3000; minibody captured by goat anti-mouse IgG Fc, sCD8αβ as analyte at 0-100 nM. As for the experimental part:
FIG. 15A-to FIG. 15C depict the kinetic analysis of minibody binding to sCD8αβ antigen using SPR Biacore 3000. […] Soluble monovalent antigen was then flowed over the chip at 100 (green), 50 (magenta), 25 (red), 12.5 (dark blue), 6.25 (light blue), and 0 (black) nM.
(§1) Surface Plasmon Resonance (SPR) analysis was performed on a Biacore 3000 (Precision Antibody, Inc.). Briefly, Mbs were captured using goat anti-mouse IgG Fc and sCD8αβ antigen was flowed over the chip at 100, 50, 25, 12.5, 6.25 and 0 nM. The equilibrium constant (KD) was calculated from the observed on (kₐ) and off (kd) rates.
Background: In SPR one partner is held on a chip, and binding of the other changes the refractive index at the surface.

Experiment [2] addresses T1, soluble CD8αβ heterodimer fusion protein. As to the kind of experiment: SPR, Biacore 3000; minibody captured by goat anti-mouse IgG Fc, soluble monomeric sCD8αβ flowed at 0-100 nM. As for the experimental part:
as §1
SPR kinetic analysis was performed using the Biacore 3000 with immobilized minibody and soluble monomeric sCD8αβ.

Experiment [3] deals with T2, mouse CD8α, Lyt2.1 allele (mouse, UniProt P01731 28-247).
T2 construct: Position 78 is counted on mature CD8a, not on the precursor; On the cells it is paired with CD8β (TK-1 is Lyt2.1+, Lyt3+); also called CD8a Lyt2.1; CD8-Lyt2.1
As to the kind of experiment: statement in Example 5; supported there only by in vivo immunoPET and biodistribution in C3H mice.

For experiment [4], the target named is T3, mouse CD8α, Lyt2.2 allele (mouse, UniProt P01731 28-247).
T3 construct: On the cells it is paired with CD8β (BW58 is Lyt2.2+, Lyt3+); also called CD8a Lyt2.2; CD8-Lyt2.2
As to the kind of experiment: statement in Example 5; supported there only by in vivo immunoPET and biodistribution in C57Bl/6 mice.

T1 sequence (P10300 other isoform, or with tags, fused parts or gaps): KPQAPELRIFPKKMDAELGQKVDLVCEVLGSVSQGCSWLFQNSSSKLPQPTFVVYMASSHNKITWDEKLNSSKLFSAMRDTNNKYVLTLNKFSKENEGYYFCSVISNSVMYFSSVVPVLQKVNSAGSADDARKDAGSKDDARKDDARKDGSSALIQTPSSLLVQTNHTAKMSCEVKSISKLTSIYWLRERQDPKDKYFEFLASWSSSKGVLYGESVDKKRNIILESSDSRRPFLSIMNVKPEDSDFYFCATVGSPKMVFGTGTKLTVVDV
T3 sequence (P01731 28-247 limits assumed): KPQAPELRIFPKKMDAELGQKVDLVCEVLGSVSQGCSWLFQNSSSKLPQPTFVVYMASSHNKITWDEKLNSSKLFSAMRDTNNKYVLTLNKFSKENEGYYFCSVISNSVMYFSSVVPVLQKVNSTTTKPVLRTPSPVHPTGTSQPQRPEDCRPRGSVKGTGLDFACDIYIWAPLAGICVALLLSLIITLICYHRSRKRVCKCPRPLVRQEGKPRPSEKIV
T2 sequence (P01731 28-247 M105V limits assumed): as the sequence (P01731 28-247 limits assumed) above, with M78V counted along it

B1: anti-mCD8 2.43 minibody (other)
scFv: EVQLVESGGGLVQPGRSLKLSCAASGFTFSNYYMAWVRQAPTKGLEWVAYINTGGGTTYYRDSVKGRFTISRDDAKSTLYLQMDSLRSEDTATYYCTTAIGYYFDYWGQGVMVTVSSGSTSGGGSGGGSGGGGSSDIQLTQSPASLSASLGETVSIECLASEDIYSYLAWYQQKPGKSPQVLIYAANRLQDGVPSRFSGSGSGTQYSLKISGMQPEDEGDYFCLQGSKFPYTFGAGTKLELKLEPRGPTIKPCPPCKCPAPNLLGGPGSVRAPQVYVLPPPEEEMTKKQVTLTCMVTDFMPEDIYVEWTNNGKTELNYKNTEPVLDSDGSYFMYSKLRVEKKNWVERNSYSCSVVHEGLHNYHTTKSFSRTPGKAAAAGHLPETGAGHHHHHHAAA
notes: Minibody (scFv-hinge-CH3 homodimer, about 80 kDa; 19% higher multimers); Some assays used the NOTA/64Cu-labelled or FITC-labelled protein
B1: in experiment [1], the Ka is 3e+07 M⁻¹; the dissociation rate constant (koff) (in general, the rate constant with which the complex falls apart) stood at 0.0041 s⁻¹; the on-rate (kon) (in general, the second-order rate constant of association) was found to be 120000 M⁻¹ s⁻¹. Further, the Kd – broadly, the free concentration of one partner at which half of the binding sites on the other are occupied at equilibrium, for simple one-to-one binding – in experiment [2] worked out at 34 nM.

B2: anti-mCD8 YTS 169 minibody (other)
scFv: EVKLQESGGGLVQPGRSLKLSCAASGFNFNDYWMGWVRQAPGKGLEWIGEINKDSSTINYTPSLKDKFTISRDNAQNTLYLQMSKLGSEDTAIYYCARARGMMVLIIPHYFDYWGQGVMVTVSSGSTSGGGSGGGSGGGGSSDIVLTQSPAMAMSPGERITISCRASESVSTRMHWYQQKPGQQPKLLIYGASNLESGVPARFSGSGSGTDFTLTIDPVEANDTATYFCQQSWYDPWTFGGGTKLELKLEPRGPTIKPCPPCKCPAPNLLGGPGSVRAPQVYVLPPPEEEMTKKQVTLTCMVTDFMPEDIYVEWTNNGKTELNYKNTEPVLDSDGSYFMYSKLRVEKKNWVERNSYSCSVVHEGLHNYHTTKSFSRTPGKAAAAGHLPETGAGHHHHHHAAA
notes: Minibody (scFv-hinge-CH3 homodimer); also called YTS169 Mb
For B2, in experiment [1], the Ka was found to be 3e+07 M⁻¹, the koff was 0.0076 s⁻¹ and the kon came to 230000 M⁻¹ s⁻¹. This molecule also yielded a Kd in experiment [2] of 33 nM.

B3: anti-mCD8 2.43 Cys-diabody (other)
scFv: EVQLVESGGGLVQPGRSLKLSCAASGFTFSNYYMAWVRQAPTKGLEWVAYINTGGGTTYYRDSVKGRFTISRDDAKSTLYLQMDSLRSEDTATYYCTTAIGYYFDYWGQGVMVTVSSGGGGSDIQLTQSPASLSASLGETVSIECLASEDIYSYLAWYQQKPGKSPQVLIYAANRLQDGVPSRFSGSGSGTQYSLKISGMQPEDEGDYFCLQGSKFPYTFGAGTKLELKAAAGCGGHHHHHH
notes: Cys-diabody (scFv dimer, about 51 kDa)
With B3, the binding result in experiment [3] is recorded as “no binding”; in experiment [4], “binds”.

These data come from US20150191543A1 (University of California, published 2015).
